Reference: paper PMC11782487, “Cryo-EM structures reveal the H^+/citrate symport mechanism of Drosophila INDY” (Life Science Alliance, 2025)

Target: the molecule itself
Assay: cryo-EM structure; purified INDY in MSP1 nanodiscs (E. coli polar lipids); apo at pH 6 and pH 8, with 5 mM citrate, or with 150 uM DIDS; homodimer in all seven structures

B1: Drosophila I'm Not Dead Yet (INDY) (natural protein)
chain: not shown
notes: I'm Not Dead Yet (INDY), Drosophila melanogaster, full-length gene, GenBank AF509505.1; 590 amino acids; Eluted from the anti-GFP resin by overnight thrombin cleavage; residues of the thrombin site may be left at the C-terminus; Regions of poor density were modelled as polyalanine in the deposited structures; also called WT INDY; apo INDY; not shown: eGFP, C-terminal, cleaved; His10, C-terminal, …
- stoichiometry N: 2
